# Columns and labels:
# [1] = molecular target: 14-3-3ε (endogenous) [human (endogenous in HCT116)]; assay: proximity ligation assay (PLA); conditions: HCT116 cells stably expressing GFP–Centrin2; antibodies to the Myc epitope tag and 14-3-3ε; parent: 52; read off a plot
# [2] = molecular target: separase [also known as separin (ESPL1)], endogenous [human (endogenous in HCT116)]; assay: proximity ligation assay (PLA); conditions: HCT116 cells stably expressing GFP–Centrin2; antibodies against HA and separase; parent: 44; read off a plot
response (puncta per cell) [1],response (puncta per cell) [2],Substance
,19,"HA-tagged 14-3-3ε WT mutant D127A; E134A [not stated] / separase [also known as separin (ESPL1)], endogenous [human (endogenous in HCT116)] chain 1 D127A, chain 1 E134A"
,8,"HA-tagged 14-3-3ε WT mutant E134A [not stated] / separase [also known as separin (ESPL1)], endogenous [human (endogenous in HCT116)] chain 1 E134A"

# The remaining lines, values behind:
Substance,response (puncta per cell) [1],response (puncta per cell) [2]
Myc-tagged separase (FL) mutant S1501A [human] / 14-3-3ε (endogenous) [human (endogenous in HCT116)] chain 1 S1501A,0.5,
"HA-tagged 14-3-3ε WT mutant D127A [not stated] / separase [also known as separin (ESPL1)], endogenous [human (endogenous in HCT116)] chain 1 D127A",,63
Myc-tagged separase (FL) mutant T1363A [human] / 14-3-3ε (endogenous) [human (endogenous in HCT116)] chain 1 T1363A,45,

# From article PMC12301659
